# Data from US20060235215A1 (published 2006).
# T1: Elicitor responsive protein, bait fragment aa 50-145 (Oryza sativa, UniProt Q0JBH9 50-144)
# T1 construct: bait; also called OsERP; PN20696
# T1 sequence: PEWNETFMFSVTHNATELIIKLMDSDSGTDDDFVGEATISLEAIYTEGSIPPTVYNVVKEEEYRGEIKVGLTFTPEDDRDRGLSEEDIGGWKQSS
# T2: O. sativa Chitinase, Class III, bait fragment aa 10-200 (Oryza sativa)
# T2 construct: bait; also called OsCHIB1; PN19651
# T2 chain: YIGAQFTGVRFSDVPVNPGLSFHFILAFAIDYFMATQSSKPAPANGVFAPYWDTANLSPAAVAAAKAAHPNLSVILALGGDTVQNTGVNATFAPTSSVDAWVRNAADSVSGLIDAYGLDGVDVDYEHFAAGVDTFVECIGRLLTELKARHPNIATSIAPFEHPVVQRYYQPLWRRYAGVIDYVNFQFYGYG
# T3: O. sativa Chilling-Inducible Protein CAA90866, bait clone aa 100-250 (Oryza sativa)
# T3 construct: bait; also called OsCAA90866; PN20311
# T3 chain: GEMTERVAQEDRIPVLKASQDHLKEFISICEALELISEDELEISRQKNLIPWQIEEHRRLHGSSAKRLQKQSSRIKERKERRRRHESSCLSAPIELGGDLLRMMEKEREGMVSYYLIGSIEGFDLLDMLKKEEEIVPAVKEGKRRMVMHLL
# B1: Isp-4 like PN30870, prey clone aa 1-446 (other)
# chain: GEEDEHPHEGRAGVERRRQHVVVLLPPPLAVLEHEVVEDGARDEPARDVGRRRRRHPGEPVGDDGDVDERDPLLLRERPAEQPHRHGQHGAGEEQPHQVAVQAVAAEQPGGADEPPDHRRVERDPVLGARPRAVRVQRLHVADVVDAAQHPPRHRQVHHAGDHRAHQLRRVHAPRRDLHVVPQLEVREERQRVHRADPPVDLEQQVRDRLPRQRVPDHELRDDVVPRLLVGGGLDDADGEGDDEGEGEGEEHPPPRQLHLLPVHERHDQRHGDAADEQHEEPPLRHLLVPPHQLRVHVHLRRRGAHRRPALPPDVPAVEQRHVHDRRREPQEPGPDGDGEQRAQVQLPVALVRRHVEVELPREHLGGVVLLPGRREQLVGEDWELPRVERVELPVAERHDEVDEHDEARGGVGDGRPRRHQRAPVVRRDAGPVQCEGADAEAVVAG
# notes: prey; AD fusion; input trait library
# B2: Pectinesterase-like PN30845, prey clone aa 1-64 (other)
# chain: GDQGRTYLFRVSNVGVKTSVNVRIQGHSLRLVEVEGTHPVQNVYDSLDVHVGQSVAFLVTLDKA
# notes: as for B1
# B3: NAD(P) binding domain protein PN30868, prey clone aa 167-336 (other)
# chain: YNELAQLRAGKSSKSKLLIAKFKSPKSLNGWEVDQGSYFPNTFASRFDEGIDASFDFSEAGQAVFSGFVFTRGGYVEISKRLSLPLGSTLDRYDGLLFSVGGNGRSYVVILETGPLADTSQSKKYFARMTTKVGFCRVRVPFSAFRPVNPQDPPLDPFLVHTLTIRFEPK
# notes: as for B1
# B4: Novel protein PN30844, prey clone aa 1-64 (other)
# chain: VAVRKKETRDGAMQTMPSRVQQGAADFEETLFVRCHLYCSGGAGTGKPLRFEPRPFLLSAVAVE
# notes: as for B1
# B5: Novel protein PN29983, prey clone aa 1-131 (other)
# chain: GVETVVTDTAGNKVVVTGAADAAELKERIEARTKKAVQIVSAGAGPPPKKDKEEKKDKDKKGGGDDKKAEKEKGGGGGDKKAEKEKGGGDKPKEEKKAKEPKEETVTLKIRLHCEGCIDRIKRRICKIKGG
# notes: as for B1
# B6: Ubiquitin specific protease-like PN30843, prey clone aa 164-221 (other)
# chain: RALQNFTAEELLDGGEKQYQCQRCRKKVVAKKKFTIDKAPYVLTIHLKRFSPFNPREK
# notes: as for B1
# B7: Novel protein PN30857, prey clone aa 1-148 (other)
# chain: QDTRPLQAQRRRHGGGPQDRQREPSQGDFLRRQREEHPGGEEDRAPHGAGGHAAAGEGRGPRAGEHPQHQGGAAGAVGGGREGGGRAHLLRPRRHRDIGDRVGHTYCLSRLRRIAQNEQPSIHPCPSLAGQVIIRWEFRIGRDNNTFQ
# notes: as for B1
# B8: Novel Protein PN22020, Fragment, Similar to A. thaliana Putative Protein, prey clone aa 128-170 (other)
# chain: AVREPKRYYDPSPAYPAPYHQQTNRDPYAYGNTTTGGYGYAYG
# notes: prey; AD fusion; input trait library; also called OsPN22020
# B9: Novel Protein PN29041, Fragment, Similar to A. thaliana Putative ATPase, prey clone aa 5-108 (other)
# chain: VQIRRALRALVDDHTDGLMDFEDTEVRSSEETDALEEARLAIEQVVIPKGESVQLLPRPPSIIASQVDLVESFKLKWESIGQEPNACLRILPQFVGVEEGGKSV
# notes: prey; AD fusion; input trait library; two clones; also called OsPN29041
# B10: Novel Protein PN22823, Similar to ABC Transporter Proteins, prey clone aa 25-106 (other)
# chain: SSSGKKVPLFSLFRYADRLDVLLMVVGTVGALGNGISQPLMTVLFGNVINSFGANTSGSVLRSVTKVKVSCWTMAGERQSAR
# notes: prey; AD fusion; input trait library; also called OsPN22823
# B11: Novel Protein PN22020, Fragment, Similar to A. thaliana Putative Protein, prey clone aa 76-170 (other)
# chain: ANATDGVKPLVGSARLPLRDVLADTGIGARASRSLRLKRPSGRPHGRLEVRVAVREPKRYYDPSPAYPAPYHQQTNRDPYAYGNTTTGGYGYAYG
# notes: prey; AD fusion; input trait library; three clones; also called OsPN22020
# B12: Novel Protein PN26645, Putative Protein Disulfide Isomerase-Related Protein Precursor, prey clone aa 24-164 (other)
# chain: PLPEACPVPTAAEEILGPGGTCTTLDRRGDPVGVIEGDEVTLAKAITLLHMNKDDYIAVLFYASWCPFSQECKPNFEILASLFPSIRHFAFEESSIRPSIISRYGIHGFPTLFLLNSTMRVRYHGPRTVKSLAAFYRDVSG
# notes: prey; AD fusion; input trait library; also called OsPN26645
# B13: Hypothetical Protein ORF020300-2233.2, Putative PP2A Regulatory Subunit, Similar to OsCAA90866, prey clone aa 118-388 (other)
# chain: SQDHLKEFISICEALELISEDELELSRQKQPDTMANRRAQKAARFKRQKAAETKLLEIKERKERRRRSLRAAALSAPIEAGEEDAFEDDGEEEREAWLATISLALCKAFDLLDMLKKEEEMLLAVKERQAKDGNAFAREMLDERTKKAEAWHHNAANRAPYSKPADPITCATFAQDVIEGRASVSQAHEHKHQPLIFGPASLVGGGLTSERERMAAQVFQPSYRLPTMSIEEAGLREMKMMEKWQERTAKMIQESNSAWHKDGSRSAQEDE
# notes: prey; AD fusion; input trait library; also called OsORF020300-2233.2
# B14: O. sativa Putative Proline-Rich Protein AAK63900, prey clone aa 122-224 (other)
# chain: AAVAGKTHYRSALCASVTICGPIKKKIIDHFHKKPVPPKPEPKPEPPKPKPEPEHPFLDHIHKKEKHFFDHFHKKPVPPKPEPKPEPKPQPAPEYHNPSPPAN
# notes: prey; AD fusion; input trait library; also called OsAAK63900; PN23266
# B15: Novel Protein 23268, Similar to Phosphoribosylanthranilate Transferase, Chloroplast Precursor, Fragment, prey clone aa 12-200 (other)
# chain: SEEEAEATLRLLLEEENEARIAAFLVLLRAKGETYEEIVGLAKAMIGCCVRVDGLDDAVDIVGTGGDGADTVNISTGSTILAAAAGAKVAKQGSRASSSACGSADGIKRCVNEVGVGFMMSANYHPAMKIVKPVRKKLKIKTVFNILGPLLNPARVPYAVIGVYHENIVTKMAKAAQKFGMKRALVVHS
# notes: prey; AD fusion; input trait library; two clones; also called OsPN23268; Os23268
# B16: Hypothetical Protein ORF020300-2233.2, Putative PP2A Regulatory Subunit, Similar to OsCAA90866, prey clone aa 93-387 (other)
# chain: LLVPYYLGEMTERVAQEDRIPVLKASQDHLKEFISICEALELISEDELELSRQKQPDTMANRRAQKAARFKRQKAAETKLLEIKERKERRRRSLRAAALSAPIEAGEEDAFEDDGEEEREAWLATISLALCKAFDLLDMLKKEEEMLLAVKERQAKDGNAFAREMLDERTKKAEAWHHNAANRAPYSKPADPITCATFAQDVIEGRASVSQAHEHKHQPLIFGPASLVGGGLTSERERMAAQVFQPSYRLPTMSIEEAGLREMKMMEKWQERTAKMIQESNSAWHKDGSRSAQED
# notes: as for B13
# B17: O. sativa Chilling-Inducible Protein CAA90866, prey clone aa 1-126 (other)
# chain: MVEVEEVSNKMQVQMRLHPAAAAEEEDADLPLPALFDKASHLHSLASSSSLDQEGIRKGVDLLRRCDEMVSKVGLFSSNETKDDISTANLKYLLVPYYLGEMTERVAQEDRIPVLKASQDHLKEFI
# notes: prey; AD fusion; output trait library; also called OsCAA90866; PN20311
# B18: O. sativa Putative Pyrrolidone Carboxyl Peptidase, prey clone aa 92-222 (other)
# chain: FGVNSGTTRFALENQAINEATFRCPDELGWKPQRAPIVSSDGSISNLRKTTVPVNEVNKSLQQMGFDVAPSDDAGRFVCNYVYYQSLRFAEQRGIKSLFVHFPLFTTISEEVQMNFVATLLEVLASQNYAQ
# notes: prey; AD fusion; input trait library; two clones; also called OsAAG46136; PN23186
# B19: Hypothetical Protein ORF020300-2233.2, Putative PP2A Regulatory Subunit, Similar to OsCAA90866, prey clone aa 1-206 (other)
# chain: MVEVEEVSNKMQAQMRLHPAAAAEEEDADLPLPALFDKASHLHSLASSSSLDQEGIRKGVDLLRRCDEMVSKLGLFSSNETKDDVSTANLKYLLVPYYLGEMTERVAQEDRIPVLKASQDHLKEFISICEALELISEDELELSRQKQPDTMANRRAQKAARFKRQKAAETKLLEIKERKERRRRSLRAAALSAPIEAGEEDAFEDD
# notes: prey; AD fusion; output trait library; three clones; also called OsORF020300-2233.2
# B20: Novel Protein PN23225, Similar to Triticum aestivum Initiation Factor (iso)4f p82 Subunit, prey clone aa 639-792 (other)
# chain: FGIRILDEAQQCIEELQCPEYYSEIVKEAINLALDKGPNFIDPLVRLLEHLHTKKIFKTEDLKTGCLLYAALLEDIGIDLPLAPALFGEVVARLSLSCSLSFEVVEEILKAVEDTYFRKGIFDAVMKTMGGNSSGQAILSSHAVVIDACNKLLK
# notes: prey; AD fusion; input trait library; also called OsPN23225
# B21: Novel Protein PN29883, Fragment, prey clone aa 58-175 (other)
# chain: YGQLKAAQPFFLLAGPNVIESEEHVLKMAKHIKGITTKLGLPLVFKSSFDKANRTSSKSFRGPGLEEGLKILEKVKATYDIPVVTDVHESHQCEAAGRVADIIQIPAFFCRQTDLLVA
# notes: prey; AD fusion; output trait library; also called OsPN29883
# B22: Novel Protein PN23045, prey clone aa 240-287 (other)
# chain: ILSKLVQAKELLKEYVEREKKKREERSETPKSNEAVTKFDGSLNSMRH
# notes: prey; AD fusion; input trait library; two clones; also called OsPN23045
# B23: Hypothetical Protein ORF020300-2233.2, Putative PP2A Regulatory Subunit, Similar to OsCAA90866, prey clone aa 1-190 (other)
# chain: MVEVEEVSNKMQAQMRLHPAAAAEEEDADLPLPALFDKASHLHSLASSSSLDQEGIRKGVDLLRRCDEMVSKLGLFSSNETKDDVSTANLKYLLVPYYLGEMTERVAQEDRIPVLKASQDHLKEFISICEALELISEDELELSRQKQPDTMANRRAQKAARFKRQKAAETKLLEIKERKERRRRSLRAAA
# notes: as for B19
# Molecular target: T1, Elicitor responsive protein, bait …
# Experiment: yeast two-hybrid
row,Binder,binding result
1,"APSSSSGTTSRPTASRTQQTKGRLTVTISLKAYSPGRT (other, prey; AD fusion; input trait library) [Novel Protein PN29984, prey clone aa 1-38]",binds
2,B1,binds
3,B2,binds
4,B3,binds
5,B4,binds
6,B5,binds
7,B6,binds
8,"SSGTTSRPTASRTQQTKGRLTVTISLKAYSPGRTRSG (other, prey; AD fusion; input trait library) [Novel Protein PN29984, prey clone aa 5-41]",binds
9,B7,binds

# Molecular target: T2, O. sativa Chitinase, Class III, bait …
# Experiment: yeast two-hybrid
# Experimental: Yeast carrying the target gene construct was combined with yeast carrying the activation domain library. The two yeast strains mated to form diploid yeast and were plated on media that selected for expression of one or more Ga14p-responsive reporter genes. Thus, both hybrid proteins (i.e., the target “bait” protein and the activation domain “prey” protein) were expressed in a yeast reporter strain where an interaction between the test proteins results in transcription of the reporter genes […]. Colonies that arose after incubation were selected for further characterization. The activation domain plasmid was isolated from each colony obtained in the two-hybrid search. The sequence of the insert in this construct was obtained by sequence analysis (e.g., Sanger's dideoxy nucleotide chain termination method; see Ausubel et al., 1988, including updates up to 2002). Thus, the identity of positives obtained from these searches was determined by sequence analysis against proprietary and public (e.g., GENBANK®) nucleic acid and protein databases.
# This example provides newly characterized rice proteins interacting with a rice chitinase, class III (OsCHIB1), and with rice cellulose synthase catalytic subunit, RSW1-like (OsCS). An automated, high-throughput yeast two-hybrid assay technology (provided by Myriad Genetics Inc., Salt Lake City, Utah) was used to search for protein interactions with the chitinase and cellulose synthase bait proteins.
row,Binder,binding result
1,B8,binds
2,B9,binds
3,B10,binds
4,B11,binds

# Molecular target: T4, O. sativa Serine/Threonine Protein Phosphatase PP2A-2, Catalytic Subunit, bait fragment aa 1-308 (Oryza sativa, UniProt A2XN40 1-307)
# T4 construct: bait; also called OsPP2A-2; PN20254
# T4 sequence (A2XN40 whole entry, the tested form may be a part): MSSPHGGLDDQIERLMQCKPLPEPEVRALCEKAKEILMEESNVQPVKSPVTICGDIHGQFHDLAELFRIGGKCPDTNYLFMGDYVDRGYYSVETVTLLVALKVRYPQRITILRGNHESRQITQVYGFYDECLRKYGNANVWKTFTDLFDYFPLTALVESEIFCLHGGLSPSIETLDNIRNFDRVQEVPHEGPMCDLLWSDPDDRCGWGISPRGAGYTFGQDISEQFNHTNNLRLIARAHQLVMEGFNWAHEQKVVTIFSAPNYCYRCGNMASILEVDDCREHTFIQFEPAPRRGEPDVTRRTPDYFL
# Experiment: yeast two-hybrid
row,Binder,binding result
1,B12,binds
2,B13,binds
3,B14,binds
4,B15,binds
5,B16,binds

# Molecular target: T3, O. sativa Chilling-Inducible Protein …
# Experiment: yeast two-hybrid
row,Binder,binding result
1,B17,binds
2,B18,binds
3,B19,binds
4,B20,binds
5,B21,binds
6,B22,binds
7,B23,binds
